Our source for the amyloid nucleation score values is the supplement of paper PMC12042874.

± gives the uncertainty stated by the source.

The data set can be described thus: amyloid nucleation score (Sup35N fusion, yeast selection) (log enrichment); library NNK2; higher = more nucleation; inactive = no reads after selection. Put shortly:
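Yeast lacking psi expressed peptides of 20 random codons fused to Sup35N, received 100 μM copper sulfate for 24 hours, and were then grown for 7 days at 30°C on medium lacking adenine and uracil. Illumina sequencing of input and output plasmid inserts provided the reads. Nucleation scores are DiMSum log enrichments of output over input, centred on the mode of non-aggregating sequences. Any sequence with under 100 input reads was excluded.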
In turn, RFVVWRHFSWIATMLSTIPV yielded an amyloid nucleation score of 1.13 ± 0.35.

Take RGAAGILFTSLIFMSVYALI: the amyloid nucleation score is -0.104 ± 0.49.

Take RGEHRERCGDIGRYGMGRRA: the amyloid nucleation score was 1.27 ± 0.14.

RGIFSSVWLLRSIMFGVGSP: the amyloid nucleation score is -0.016 ± 0.23.

Take RGINDILRFKS: the amyloid nucleation score was found to be 0.494 ± 0.44.

For the substance RGNMTLIETALAIVQSFSNH, the amyloid nucleation score came out at 9.064 ± 0.035.

As for RGREL, the amyloid nucleation score was -1.66 ± 0.54.

In the case of RGSGSVMNSGYEAASRRLGG, the amyloid nucleation score is -0.12 ± 0.46.

With RGSRVLSFILLRISNWIFQD, the amyloid nucleation score is -0.239 ± 0.76.

In turn, RGYLTAT showed an amyloid nucleation score of -0.134 ± 0.53.

For RHFYRSKMAMVYGFHTAFTG, the amyloid nucleation score is -0.582 ± 0.34.

RHGVMLGAVGVGSNDGSFLS returned an amyloid nucleation score of 2.29 ± 0.28.

RHSHRARKVGEWGNLCLVEK showed an amyloid nucleation score of 0.26 ± 0.21.

Turning to RHTSMSGCMTVIMTGCEIPR, the amyloid nucleation score was 1.13 ± 0.39.

Take RIDVAI: the amyloid nucleation score is -0.457 ± 0.76.

Consider RIFVIVAGNYYFLAGFGYLA, for which the amyloid nucleation score was -1.74 ± 0.64.

On to RIGCRRPRFDNEQQWARS, for which the amyloid nucleation score was found to be 5.62 ± 0.093.

In the case of RIGMPMMSAYTMGLVTDRFT, the amyloid nucleation score was 1.06 ± 0.4.

On to RIKCRTLLGQFLMAVVIEMY, for which the amyloid nucleation score was 0.309 ± 0.31.

As for RIKGSGGPNVLGWFRMVLCS, the amyloid nucleation score came to 0.284 ± 1.1.

The substance RILFNRS came in with an amyloid nucleation score of 0.107 ± 0.4.

RILFRGHSVLKNWF: the amyloid nucleation score is -1.86 ± 0.49.

Consider RILLLDLRYYCTTP, for which the amyloid nucleation score result is “inactive”.

In turn, RINNS registered an amyloid nucleation score of -1.44 ± 0.45.

The substance RINQLLTPLTWQERGP came in with an amyloid nucleation score of 3.38 ± 0.06.

RISIPS: the amyloid nucleation score entry was “inactive”.

Substance RIVGRSFYMQFGRVWDFLRS registered an amyloid nucleation score of -0.546 ± 0.61.

For the substance RIVMLGFVN, the amyloid nucleation score was -1.44 ± 0.54.

RIYNYWTIARKFFRV yielded an amyloid nucleation score of -1.24 ± 0.55.

The substance RIYRRNQWVPGGDYSKGINL yielded an amyloid nucleation score of -0.892 ± 0.76.

In turn, RKCFDRRDYIPKIGQIRMSC showed an amyloid nucleation score of -0.48 ± 0.39.

In turn, RKCSLVAEWTGLLLNSFVHN displayed an amyloid nucleation score of 1.19 ± 0.45.

In the case of RKDLEVLNGLRICMVGSAPV, the amyloid nucleation score is -0.055 ± 1.1.

As to RKDSCCSVNRCDAMSFVRGI, the amyloid nucleation score was 0.073 ± 1.1.

Substance RKLTIA came in with an amyloid nucleation score of -0.887 ± 0.42.

Consider RKYTCSFRLFYRGVCFVT, for which the amyloid nucleation score is -1.16 ± 0.76.

In turn, RLALY displayed an amyloid nucleation score of 1.45 ± 0.25.

RLCAVITMVEVIYFSYYVWF returned an amyloid nucleation score of 0.013 ± 0.55.

Turning to RLCWWLVWS, the amyloid nucleation score worked out at 0.166 ± 0.76.

For the substance RLFNTYYSRSFASYGYWLHC, the amyloid nucleation score came out at 0.47 ± 0.16.

The substance RLFRFPNVLHDLICNMYICA had an amyloid nucleation score of 6.024 ± 0.049.

RLGIFYKVDLSLVGKVPNST returned an amyloid nucleation score of 2.79 ± 0.17.

In the case of RLGSRGSLSFYVHLTCWVEV, the amyloid nucleation score is -0.27 ± 0.79.

As for RLGWNGE, the amyloid nucleation score was -0.709 ± 0.49.

For RLLFCGWLTN, the amyloid nucleation score was -1 ± 1.

Regarding RLLFVWV, the amyloid nucleation score came out at 4.12 ± 0.087.

RLNVL gave an amyloid nucleation score of -0.987 ± 0.53.

The substance RLPARLGSS registered an amyloid nucleation score of 0.23 ± 0.25.

RLRGFIPLCTYIFPNFRGLL gave an amyloid nucleation score of -0.718 ± 0.65.

Substance RLRQMCFKRNSVKLLLWNRF yielded an amyloid nucleation score of 0.409 ± 0.8.

RLSIHKSFVFDLTRSALSTM displayed an amyloid nucleation score of -0.293 ± 0.55.

RLSYWFIKELGNTSDYDRAP: the amyloid nucleation score was -0.541 ± 0.76.

Substance RLTSGIW yielded an amyloid nucleation score of -0.814 ± 0.76.

Consider RLYKRLR, for which the amyloid nucleation score was -1.19 ± 1.1.

As for RLYNSQFIKYWNFSSRCCLL, the amyloid nucleation score is 3.51 ± 0.098.

As for RMCMR, the amyloid nucleation score amounted to 0.017 ± 0.34.

As for RMCWELFT, the amyloid nucleation score was found to be 0.022 ± 0.34.

RMDVISEKFVWANESNCGVA gave an amyloid nucleation score of 0.362 ± 0.25.

RMETTKPIRSSGTSITAPNG: the amyloid nucleation score was determined as 1.53 ± 0.53.
